Assay results: US20230203098A1, “HUMAN TRANSFERRIN RECEPTOR BINDING PEPTIDE” (priority 2020, published 2023)

Test system: hTfR-KI mice
Assay: Mouse brain localization confirmation test with FITC conjugate (immunohistochemical staining, single and multiple dose)
Assay type: in vivo
Settings: multiple dose test, 3.7 mg/kg every 10 minutes, 6 times
Procedure: In the same manner as in Example 5, the conjugate of the hTfR-binding special cyclic peptide No. 894 and the fluorescent substance FITC was administered to the hTfR-KI mice. The dose was adjusted to 3.7 mg/kg.
One hour after administration, the mice were anesthetized with isoflurane and subjected to a blood removal treatment by running normal saline from the left ventricle for 4 to 5 minutes. After that, the brain was collected for measuring the fluorescence intensity and stored in normal saline to prevent drying. This brain tissue was subjected to immunohistochemical staining using an anti-FITC antibody (MBL Life Science). The immunohistochemical staining in the brain tissue using the anti-FITC antibody was performed with a publicly known method and the staining was observed using a fluorescence microscope. Note that in the figure, red arrows indicate the cerebral capillaries and arrowheads indicate the Purkinje cells.
The localization of the above-mentioned conjugate in the brain tissue was confirmed by the immunohistochemical staining. Note that, in the figure, red arrows indicate the cerebral capillaries, arrowheads indicate the Purkinje cells, and yellow arrows indicate dendrites.

## CC[C@H](C)[C@@H]1NC(=O)[C@H](Cc2ccc(O)cc2)NC(=O)[C@H](Cc2ccc(O)cc2)NC(=O)[C@H](CC(N)=O)NC(=O)[C@H](Cc2c[nH]c3ccccc23)NC(=O)[C@H](C(C)C)NC(=O)[C@H](Cc2ccccc2)NC(=O)[C@H](C(C)C)NC(=O)[C@H](C)NC(=O)CSC[C@@H](C(=O)NCCOCCOCCOCCOCCOCCOCCOCCOCCOCCOCCOCCOCCC(=O)N[C@@H](CCCCNC(=O)c2ccc(-c3c4ccc(=O)cc-4oc4cc(O)ccc34)c(C(=O)O)c2)C(N)=O)NC(=O)[C@H](Cc2ccc(O)cc2)N(C)C(=O)[C@H](Cc2ccc(O)cc2)NC(=O)[C@H](CCCNC(=N)N)NC(=O)[C@H](CCCNC(=N)N)NC(=O)[C@H]([C@@H](C)CC)NC1=O
  localization in the brain tissue: reached as far as neurons such as the Purkinje cells
